# Laboratory results from patent US20130055470.
# Biological target: ubiquitin
row,Protein,"E3 ubiquitin ligase activity (in vitro ubiquitination reaction, anti-Ub Western blot)"
1,ZmTR1 protein (protein) MAGDDHVVVDVNGLAKSKDDGGSKKLSEDANGSAPAAASLSAAVDLVQEEEEEEGDGEEQPLIQAAECRICQEEDSVKNLEKPCACSGSLKYAHRACVQRWCNEKGDTTCEICHEEYKPGYTAPPRVQPDETTIDIDGDLVMDLRDPRILAVAAAQHRLLEAEYDGYASTDASGAAFCRSAALILMALLLLRHALSMSDNEGNDDDASTIFSLFLLRAAGFLLPCYIMAWIFSILHRRRQRQEEAALAAAEVAFILQSARGRALQFAIAPDSPATPQHEPVSQQQQ,"multiple bands occurred in the lane with the addition of E1, E2, ATP and Ub, while no band occurred in the control"
2,AtTR1 protein (protein) MADHLSLCTDRLITSESLDSEKDSDSSGESSYRPQGTDLASSSVNETEVPREYYAVADEEEPLLQSVECRICQEEDSTKNLEAPCACNGSLKYAHRKCVQRWCNEKGDITCEICHQPYQHGYTAPPPPPPDETIIHIGDDWENGVPLDLTDPRILAMAAAERHFLEADYDEYSENNSSGAAFCRSAALILMALLLLRDALNLTTNPDDEDDPTAFFSLFLLRAAGFLLPCYIMAWAIGILQRRRQRQEAAALAAAEVTFMIHGGGPQRRGLHFAVAPQPPISNVPTPV,"multiple bands occurred in the lane with the addition of E1, E2, ATP and Ub, while no band occurred in the control"
3,OsTR1-1 protein (protein) MGDHVAVDVGGLMASRGAGEEETGALIGMVECRICQEEDLAKNLESPCACSGSLKYAHRECVQRWCNEKGDIICEICHVSYKPGYTAPPQVHHDETTIEISSGDWSISGNRLDLHDPRILAMAAAQHRLLEDEYDEYTATNNNAAAFCRSIFLILMALLLLRHTLTITSSDDEDDASAIFSLFLLRAAGFLLPCYIMAWAISIMQRQRQRQEEAMLLPTEVAIILHRNGRTMQFAVAPESPTTPHPEQGQ,"multiple bands occurred in the lane with the addition of E1, E2, ATP and Ub, while no band occurred in the control"
